T1: Human OX40L (antigen of the ForteBio affinity assay) (human, UniProt P23510 51-183, limits assumed)
T1 construct: It may be the Acro His-tagged protein, but nothing ties it to that; also called CD252; CD134L
T1 sequence (looked up): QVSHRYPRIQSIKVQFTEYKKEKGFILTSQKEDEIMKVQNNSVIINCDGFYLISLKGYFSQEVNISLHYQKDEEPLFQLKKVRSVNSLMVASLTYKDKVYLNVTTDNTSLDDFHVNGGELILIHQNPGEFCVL


Molecular target: T1, Human OX40L (antigen of the ForteBio …)
Assay: ForteBio (biolayer interferometry)

| Kd | Binder |
| --- | --- |
| 0.379 nM | HZ22 (antibody, human IgG4 S228P, kappa, V domains shown, Humanized antibody expressed in HEK293; also called humanized anti-OX40L antibody) VH: QVQLQESGPGLVKPSQTLSLTCTVSGYAVTGDYAWSWIRQPPGKRLEWIGYISSSAGTNYNPSLKSRVTISVDTSKNQFSLKLSSVTAADTAVYYCARDLYYGGRNQWYFDVWGQGTLVTVSS VL: DIQMTQSPSSLSASVGDRVTITCSATSSIIYMHWYQQKPGKAPKLLIYDTSKLPSGVPSRFSGSGSGTDFTLTISSLQPEDFATYYCHQRSSFPFTFGGGTKVEIKR |
| 0.307 nM | HZ18 (antibody, human IgG4 S228P, kappa, V domains shown, Humanized antibody expressed in HEK293; also called humanized anti-OX40L antibody) VH: EVQLVQSGAEVKKPGATVKISCKVSGYSFTGYRIHWVQQAPGKGLEWMGYVDPYDDKTDYSQKSKGRVTITADTSTDTAYMELSSLRSEDTAVYYCAREGFAYWGQGTLVTVSS VL: DIQMTQSPSSLSASVGDRVTITCTSSSSLRYMHWYQQKPGKAPKLLIYNTFDLASGVPSRFSGSGSGTDFTLTISSLQPEDFATYYCQQRTTYPPTFGQGTKLEIKR |
